According to patent publication US20080038257A1 (AVEO PHARMACEUTICALS, published 2008):
Numbering of substitutions follows the chain as printed.

B1: anti-hHGF monoclonal antibody 1A3 (antibody, mouse IgG1, kappa, V domains shown)
VH: EVQLVESGGGLVQPGGSLKLSCAASEFTFSNYYMSWVRQTPEKRLQWVAYISPGGGSSYYPASVKGRFTISRDNAKNTLYLQMSSLKSEDTAMYYCARQGDGYYGDYAMDYWGQGTSVTVSS
VL: DIQMTQSPASLSVSVGETVTITCRASENIYSNLAWYQQKQGKSPQLLVYAATNLADGVPSRFSGSGSGTQFSLKINSLQSEDFGTYYCQHFWGTPYTFGGGTKLEIKR
B2: anti-hHGF monoclonal antibody 1D3 (antibody, mouse IgG1, kappa, V domains shown)
VH: B1 VH with E26G, N31D, Q46E, P53S, S58T, A62D, M93I, A97V, T119I
VL: B1 VL with A25T, V48I, K74R, T85R
B3: anti-hHGF monoclonal antibody 1F3 (antibody, mouse IgG1, kappa, V domains shown)
VH: B1 VH with P14S, E26G, Y33F, Q46E, P53S, S58T, A62D, A97V
VL: B1 VL with A50D, N53H, A55P, T85S, K103R
B4: anti-hHGF monoclonal antibody 3A12 (antibody, mouse IgG1, kappa, V domains shown)
VH: B1 VH with L20I, E26G, Y33F, Q46E, P53S, S58T, A62D, S84N, A97V
VL: B1 VL with S31I, Y49H, N53K, F71Y, T85S
B5: anti-hHGF monoclonal antibody 2B8 (antibody, mouse IgG1, kappa)
heavy: QVQLQQPGAELVKPGTSVKLSCKASGYTFTTYWMHWVNQRPGQGLEWIGEINPTNGHTNYNEKFKSKATLTVDKSSSTAYMQLSSLTSEDSAVYYCARNYVGSIFDYWGQGTTLTVSSAKTTPPSVYPLAPGSAAQTNSMVTLGCLVKGYFPEPVTVTWNSGSLSSGVHTFPAVLQSDLYTLSSSVTVPSSTWPSETVTCNVAHPASSTKVDKKIVPRDCGCKPCICTVPEVSSVFIFPPKPKDVLTITLTPKVTCVVVDISKDDPEVQFSWFVDDVEVHTAQTQPREEQFNSTFRSVSELPIMHQDWLNGKEFKCRVNSAAFPAPIEKTISKTKGRPKAPQVYTIPPPKEQMAKDKVSLTCMITDFFPEDITVEWQWNGQPAENYKNTQPIMDTDGSYFVYSKLNVQKSNWEAGNTFTCSVLHEGLHNHHTEKSLSHSPGK
light: NIVMTQSPKSMSMSVGERVTLSCKASENVVSYVSWYQQKPAQSPKLLIYGASNRNTGVPDRFTGSGSATDFTLTISSVRAEDLADYHCGQSYNYPYTFGGGTRLEIKRADAAPTVSIFPPSSEQLTSGGASVVCFLNNFYPKDINVKWKIDGSERQNGVLNSWTDQDSKDSTYSMSSTLTLTKDEYERHNSYTCEATHKTSTSPIVKSFNRNEC
B6: anti-hHGF monoclonal antibody 2F8 (antibody, mouse IgG1, kappa, V domains shown)
VH: QVQLKQSGAELVRPGTSVKMSCKASGYTFTTYYIHWVNQRPGQGLEWIGKIGPGSGSTYYNEMFKDKATLTVDTSSSTAYMQLSSLTSDDSAVYFCARRGLGRGFDYWGQGTTLTVSS
VL: DIVLTQSPASLAVSLGQRATISCKASQSVDYDGNSYINWYQQKPGQPPKVLIYVASNLESGIPARFSGSGSGTDFTLNIHPVEEEDAATYYCQQSIEDPPTFGAGTKLELKR
B7: anti-hHGF monoclonal antibody 3B6 (antibody, mouse IgG1, kappa, V domains shown)
VH: QVQLQQSGAELVRPGSSVKISCKASGYVFSSYWMNWVKQRPGQGLEWIGQIYPGDGDSNYNGNFKGKATLTADKSSSTAYMQLSSLTSEDSAVYFCASQLGLRENYFDYWGQGTTLTVSS
VL: DIKMTQSPSSMYASLGERVTITCKASQDIKSYLSWFQQKPGKSPKTLIYRVNRLVDGVPSRFSGSGSGQDSSLTITSLENEDMGIYYCLQYDEFPFTFGGGTKLEIKR
B8: anti-hHGF monoclonal antibody 3D11 (antibody, mouse IgG1, kappa, V domains shown)
VH: QVQLKESGPGLVAPSQSLSITCTVSGFSLTSYSLHWVRQPPGKGLEWLGVIWAGGNTNYNSSLMSRLTIRKDNSKSQVFLKMNSLQTDDTAMYYCARERFAYWGQGTLVTVSA
VL: QIVLTQSPAIMSAYPGEKVTMTCSASSSVSYMHWYQQKSGTSPKRWIYDTSKLASGVPARFSGSGSGTSYSLTISSMEAEDAATYYCQQWSSNPLTFGAGTKLELKR
B9: HE2B8-1 (LR2B8HC + IgG1 G1m(3) allele 1 plus LR2B8LC + Kappa Km(3) allele 1) (antibody, V domains shown)
VH: QVQLVQPGAEVVKPGTSVKLSCKASGYTFTTYWMHWVNQAPGQGLEWIGEINPTNGHTNYNEKFKGKATLTVDKSTSTAYMELSSLRSEDTAVYYCARNYVGSIFDYWGQGTLLTVSS
VL: DIVMTQSPDSMAMSVGERVTLNCKASENVVSYVSWYQQKPGQSPKLLIYGASNRNTGVPDRFSGSGSATDFTLTISSVQAEDVADYHCGQSYNYPYTFGQGTKLEIKR
B10: HE2B8-2 (LR2B8HC + IgG1 G1m(3) allele 1 plus LRMR2B8LC + Kappa Km(3) allele 1) (antibody, V domains shown)
VH: B9 VH
VL: B9 VL with M11L, V15L, N55E, T56S
B11: HE2B8-3 (LRMR2B8HC + IgG1 G1m(3) allele 1 plus LR2B8LC + Kappa Km(3) allele 1) (antibody, V domains shown)
VH: B9 VH with V12K, N38R, E62Q, K65Q, K67R
VL: B9 VL
B12: HE2B8-4 (LRMR2B8HC + IgG1 G1m(3) allele 1 plus LRMR2B8LC + Kappa Km(3) allele 1) (antibody, V domains shown)
VH: B9 VH with V12K, N38R, E62Q, K65Q, K67R
VL: B9 VL with M11L, V15L, N55E, T56S
B13: sh2B8-9 (G1m(3)) = hu2B8 Hv5-51.1 + IgG1 constant G1m(3) allele 2 plus hu2B8 Kv1-39.1 + Kappa Km(3) allele 2 (antibody)
heavy: not shown
light: DIQMTQSPSSLSASVGDRVTITCKASENVVSYVSWYQQKPGKAPKLLIYGASNRNTGVPSRFSGSGSGTDFTLTISSLQPEDFATYYCGQSYNYPYTFGQGTKLEIKRTVAAPSVFIFPPSDEQLKSGTASVVCLLNNFYPREAKVQWKVDNALQSGNSQESVTEQDSKDSTYSLSSTLTLSKADYEKHKVYACEVTHQGLSSPVTKSFNRGEC

Molecular target: T1, recombinant human HGF (R&D Systems, Catalog No. 294-HGN-025) (human, UniProt P14210 32-728)
T1 sequence (P14210 32-728 limits assumed): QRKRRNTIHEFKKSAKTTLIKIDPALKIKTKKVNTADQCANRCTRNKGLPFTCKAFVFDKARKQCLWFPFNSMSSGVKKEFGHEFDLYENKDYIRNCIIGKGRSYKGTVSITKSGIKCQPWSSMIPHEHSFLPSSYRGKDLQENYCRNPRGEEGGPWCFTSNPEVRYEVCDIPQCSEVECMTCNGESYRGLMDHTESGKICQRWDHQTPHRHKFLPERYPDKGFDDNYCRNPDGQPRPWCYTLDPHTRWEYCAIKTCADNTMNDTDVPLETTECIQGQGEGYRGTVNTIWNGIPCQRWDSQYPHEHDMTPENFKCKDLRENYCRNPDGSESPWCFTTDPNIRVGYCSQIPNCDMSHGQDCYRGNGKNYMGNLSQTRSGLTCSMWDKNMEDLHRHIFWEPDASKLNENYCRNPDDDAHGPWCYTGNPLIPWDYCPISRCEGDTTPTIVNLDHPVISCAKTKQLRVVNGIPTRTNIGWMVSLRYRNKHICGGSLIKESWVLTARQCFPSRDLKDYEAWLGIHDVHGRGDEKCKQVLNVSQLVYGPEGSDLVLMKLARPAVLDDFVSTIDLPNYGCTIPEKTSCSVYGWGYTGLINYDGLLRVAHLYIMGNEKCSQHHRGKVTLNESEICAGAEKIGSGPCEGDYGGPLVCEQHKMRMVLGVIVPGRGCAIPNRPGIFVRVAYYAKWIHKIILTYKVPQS
Test: cell-based or functional assay

Binder | EC50 in nM, HGF-stimulated c-Met phosphorylation in PC-3 cells, Average of Two Trials [nM]
B1 | 0.684
B2 | 0.984
B3 | 1.19
B4 | 2
B5 | 0.287
B6 | 1.39
B7 | 1.01
B8 | 2.28

Molecular target: T1, recombinant human HGF (R&D Systems, …)
Test: cell-based or functional assay
Remark: another data set of the same source

Binder | IC50 (nM), HGF stimulated BrdU incorporation in 4MBr-5 cells [nM]
B5 | 0.86
B9 | 0.47
B10 | 0.66
B11 | 0.55
B12 | 0.58
B13 | 0.52

Molecular target: T1, recombinant human HGF (R&D Systems, …)
Test: cell-based or functional assay
Remark: another data set of the same source

Binder | HGF-stimulated c-Met phosphorylation in PC-3 cells (assay of Example 9), Average of Two Trials [nM]
B5 | 0.91
B9 | 0.8
B10 | 0.88
B11 | 0.79
B12 | 0.75
B13 | 0.93

Molecular target: T1, recombinant human HGF (R&D Systems, …)
Test: cell-based or functional assay
Remark: another data set of the same source

Binder | IC50 (nM), HGF stimulated BrdU incorporation in 4MBr-5 cells [nM]
B1 | 4.69
B2 | 4.99
B3 | 1.94
B4 | 30.3
B5 | 1.41
B6 | 19.2
B7 | 36.1
B8 | 51.1
